The DeepSol protein solubility set

Assay: soluble on expression in E. coli; label from the status in PepcDB or PDB records

| Sequence | soluble on expression in E. coli |
| --- | --- |
| MAHHHHHHMVCRSKRASSFRHRVVHACVTEQRVLPSCRIHVVLRNFSADFSSLSPRCHYTSAGLLLHPSPLPPPSSTSSRLSTSIPPFRFTRAESSAAVFSMSIGTDYLSAMLNYNGCLQERILRRLLIIENETDSLLALRCALVPLQTPTRKRKRHTEPVAAQGTSFNVDVDTTRHRWSTELCEALNDEAAKANCIASLCPPAKERWCAVAAALRRAGHPSFTPYELFTKYKEMHSDSRPFALSEARFVCQYVQEHGGDWQGLCQALRQRLGHVRSPFQVAQQYRQRLRCAFVENRLTSSQLLTLLADLPASPQDRDFAALSVEAQRFTSHKTLQVSPLYLKRELEPLDFAARVPTCHHLYWKLVNLLCNFTLSHPNRLHAFQHRMPFCYQQRSLADLARSLQCEAAELQERVVHALLRLSRPPEALNYEECSKKLFGTVCGAQLIYQISEKLHEKDI | soluble |
| HLEGLGASVLDFTGFAQKFGTVLSYIRLGAKPDTLHQVRIDTGGADAVIGCDMVVSSAPKASAHYRNGTKVVLNRAEMPTGDLVLHRDAQLKIDTREAAIRAVVGTENVSGFDANQTAEQLLGDAVFANVMMLGYAWQQGLVPVSRSALAQAILLNGVAVEKNRLAFAAGRALAADPARLDVESASPE | not soluble |
| MGHHHHHHSHMPADRSIWQESCPVSFSALKKWIFLPNSTKIKEKRSSFPVRGPLTFDGWYPRDHKPSAPPTNEEERRAAAVKYGLRPEDYQSMDKDDVIKFAGDYPDLGVITYDHKDPYEAWTDRQNRRNWGELVPIDMMRYRGDRLTFTGLEAEDYTTWNSIVMCLRVLVPMALLAWYFTNEHPNALRWKNPAMPKQYSYDFYRAYPFDDPRKYPIVNYSFDLE | not soluble |
| MGSDKIHHHHHHMTTASTVYHYCGAESFFSIVRNGRLWVSDARKTNDRRELEWFKDLALKHIAKSAATGDKMLSDLHLALKVRFELLEDVSDYYVCCFSEKKDSVPQWVAYADRGTGFAIGFDVNALRKKIGAALLSPSYAPVPFGVGANGWGFGPVAYAEEGVANAQIDDLMSTIVSAPFVGEDVTDSARDHIDRVCAFCKHPDFQTEHEWRIVCNTSFLKKNAGLTGTDMLPDTKWRKGGYGLTPYRETVDVLDCVKEVIVGPGNADRDSIEYVKQFLRFSGVKAEVFLSVSPYR | not soluble |
| MGSDKIHHHHHHMKLFTSCKESVKNSIDTKYFSIAHLHSEEETMSIHIHDCYEIYYSISGENQFLIDNKLYYINPGNLFAVNEFESHYVSQVNNSTHERIVISIHPDFLKSLCTSKTNLTYCFKHRGSNFCHKVSLNKEQQSRFMYFINKIIGSHGFGADMIEYASFIELMIFLTSLFINNGESLTPIYKYSNQIEEIIRYINDNVTNDITVKHLAEHFFLSESYICRIFKLSTGTTINKYITARRISMAKALLSNGSSINDVYVKCGFNDYSNFLKSFKKAVGISPKKYSTFSTS | not soluble |
| MGSDKIHHHHHHMITFIGHVSKDVNVVDGKREIAYGGGVVMGAITSSLLGVKTKVITKCTREDVSKFSFLRDNGVEVVFLKSPRTTSIENRYGSDPDTRESFLISAADPFTESDLAFIEGEAVHINPLWYGEFPEDLIPVLRRKVMFLSADAQGFVRVPENEKLVYRDWEMKEKYLKYLDLFKVDSREAETLTGTNDLRESCRIIRSFGAKIILATHASGVIVFDGNFYEASFRSWSLEGRTGRGDTCTAAFLVGFVFKKMSIEKATKFAAAVTSVKMRHPGPLRREDLEAISGDQYF | soluble |
| MIMKNGIVYFVGAGPGDPGLLTIKGKQALKEADVILYDRLANPKLLEFASPDCQFIYCGKLPNRHFMKQKEINALLVEKALNGLTVVRLKGGDPSVFGRVGEEADALHEHGIRYEMVPGITSGIAAPLYAGIPVTHRDFASSFAMITAHDKSLKGTPNLDWEGLARSVQTLVFYMGVKNLSYICQQLISYGKSPSVPVIVIQWGTWGRQRSVKGTLENIQQKVQEHQITNPAIIVIGDIVNFQTHSWFESKPLIGRHLMVVTHGEDEDPLADKLRDSGADLIEWPKWRTENMPVNEEILRKIGTFEDVFFTSRRAVCEFFRALASQKIDIRQLTAKLSAASEQAKTELEKRGFLVTAIQPDSEKRLVVGSRHAVENMQKHESCSFYITHENVIDDRFTHMIQRTISESPLHMVICPNKLSVQQLINGGEQIGILPEPSASRPPIVCIGDDSAAGIYGFTAVQEQDELLAFIHNQHAEKKLL | not soluble |
| MHENMKDSLKRPLQDLRISVIDRCNFRCTYCMPAEVFGPDYAFLQEECLLTFDEIERLARLFISMGVNKIRLTGGEPLLRKDLPKLIARLAKLEGLKDIGLTTNGIHLAKQAKALKEAGLKRVNISLDAIEDRVFQKINGRHVSTKPVLKGIEAAKEAGLEVKVNMVVKKGMNDSQILPMAQYFKEQEIQLRFIEFMDVGSTNGWNFEQVVTKEQLIEKINRVYPIEPVKPRYFGEVAKLYRYVGNDAEVGFITSVSESFCSSCTRARISADGKFYTCLFGEKGTDLRSLLRENISDASLLKILQHTWEFRTDRYSDERTAESTNKRQKVEMSYIGG | not soluble |
| MTRHALAYVAGAYEHPLRHAPDKSVAQLHAESARGALDDAGLSFADVDGYFCAGDAGLGPAYMVDYLNLTPRHVDGTEIGGGSYLAQIGHAAHAIAAGKCSVALITLAGRPRSEGQATGTEPRIPGPDRPSAPWDSAYRWTIGTIYGNFARRHMHEYGTTSEQLAWVKVAASHHAQHNPNALLRKVYTVDDVLGSPMVADPLHRLDCCVITDGGGALVIVAPEVARSLNRPRIKVV | not soluble |
| MYDTEIPYEGKISIYTYFCKECGYRKTEVYSDEKRDPKKITIRIENPDDLRIIVYRSRRADVYIPEMEASIDSAEYSNGEITTIEGIIYRIGEKLDLLAADDQNNKKIASLRKRIDGIINGKFESFTLIIMDESGKSVVHS | not soluble |
| MGSDKIHHHHHHMVNQNQWRQWGCKVIDIEKAALEHLYQFVDSDAFSQACELILQCKGKVIVMGMGKSGHIGNKISATLASTGTPAFFVHPGEASHGDLGALAKEDIILAISNSGESSEILTLLPVIQRMGVPVIAITGKPESNMAKLAKIHLCIQVPEEACPLGLAPTSSTTATLVMGDALAVALLQAKGFTQDDFALSHPGGSLGRKLLLKVSDVMHQDDRLPCVPHDICITEALYEISKKGLGMTAVVDANQCLVGIFTDGDLRRVIDAEVNLRTTPIEQVMTKNCVTTTAGILAAQALQVMESKNINGLIVVNEQQQPIGALNMLDMVKAGVI | not soluble |
| MGSDKIHHHHHHMYSSAHSGSNESNLIAFPMAATSKTALLVQVDPFQSEVWSTALASQSITVIKEGADVDLSNMLGQMASAGLTLPDLIIVDMATEGMNPFAFCRFCREQHPSVKVLLTNSTQTQIAESEQRWAMSQGAQDLLPAFQTDSLLTDLLTALGRTSGVLGLPNLDQQALIQILPKLLEPKAEATETVALPAPSVAEPSVPPAPKAQRTYRGRPY | not soluble |
| GPGSMSPRTSERILALGVRRLRIRSSSTASSSCNGVVEFSTCGGAGGPSYRPLAAMAMIANIQAVAFTDSRRSVFQNKKTLPSPHGRNITPDAAETKGRALFSDSNSECFPADLDPPSASQLDRILPSLNQLRDEIPSSEYVEELVRRQGVSTDLWSNGEKNNSADDDDE | not soluble |
| MKIVSIKIKNYRVFEDIKITNIPSFCVIIGANGTGKSTLFDVFGFLRDALKNNIRQALQIRGGFKEVVTRGKESEDIEIELKFRMEILATERLVTYILIIGQEGKKPVIKREILRYKRGEYGSPFHFLDFHNGQGYAIRNEESFESDEELEREEQKLESADILAIKGLGQFQRFKAANAIRSLIENWHVSDFHISDARGSKAALYAEHLSPTGDNIPIVAQYIYQEHPEIFAEILQRMKQRVPGISNVEAKEIEGGSLILKFQDQAFEDSFVDLYVSDGTIKMFAYLILLFDPKPHPLLCVEEPENQLYPTLLRELAEEFASYAHRGGQVFVSTHSPDFLNAVPLDSIFWLIKIQGVTKVEKAADHEVLRNLIAAGDLPGYLWNQGWFEGVAPLEHHHHHH | not soluble |
